# Results reported in patent US20230364000A1, “COMPOSITIONS COMPRISING COMBINATIONS OF COLLAGEN OR ELASTIN POLYPEPTIDES WITH ACTIVE INGREDIENTS AND METHODS OF USING SAME” (Geltor, Inc., priority 2020, published 2023).
# B1: SEQ ID NO: 5: truncated jellyfish collagen without a His tag, linker, and thrombin cleavage site (protein)
# chain: GPQGVVGADGKDGTPGNAGQKGPSGEPGSPGKAGSAGEQGPPGKDGSNGEPGSPGKEGERGLAGPPGPDGRRGETGSPGIAGALGKPGLEGPKGYPGLRGRDGTNGKRGEQGETGPDGVRGIPGNDGQSGKPGIDGIDGTNGQPGEAGYQGGRGTRGQLGETGDVGQNGDRGAPGPDGSKGSAGRPGLR
# B2: SEQ ID NO: 52: 13 kDa non-naturally occurring truncated human elastin without the DsbA secretion tag (protein)
# chain: AGLGGVPGVGGLGVSAGAVVPQPGAGVKPGKVPGVGLPGVYPGGVLPGARFPGVGVLPGVPTGAGVKPKAPGVGGAFAGIPGVGPFGGPQPGVPLGYPIKAPKLPGGYGLPYTTGKLPYGYGPGGVAGAAGKAGYPTGTGVGPQ
# Experiments:
# [1] = tested on: Human full-thickness skin equivalents (MatTek Epiderm FT co-culture tissue models); assay: Elastin production in human full-thickness skin equivalents (ELISA); type: cell-based; settings: polypeptide 0.1% w/w, retinol (10, unit not given), ascorbic acid 2% w/w, FIG. 20; for increase of elastin production relative to untreated control: day 2 supernatant; for production of elastin as compared to untreated cells: each agent alone, day 2, hyaluronic acid 0.1% w/w
# Text: The combination of the truncated human type 21 collagen polypeptide with retinol increased elastin production by 45% relative to untreated control. This appeared to be a synergistic effect as treatment with truncated human type 21 collagen polypeptide alone increased elastin production by 20% and treatment with retinol alone increased elastin production by 17%. The combination of the truncated human type 21 collagen polypeptide with ascorbic acid increased elastin production by 33% relative to untreated control. This appeared to be a synergistic effect as treatment with truncated human type 21 collagen polypeptide alone increased elastin production by 20% and treatment with ascorbic acid alone increased elastin production by 5%.
# [2] = tested on: Human full-thickness skin equivalents (MatTek Epiderm FT co-culture tissue models); assay: Type I collagen production in human full-thickness skin equivalents (pro-collagen type I C-peptide ELISA); type: cell-based; settings: polypeptide 0.1% w/w, FIG. 18; for production of type I collagen as compared to untreated cells: each agent alone, day 4, retinol (10, unit not given), ascorbic acid 2% w/w, hyaluronic acid 0.1% w/w
# Experimental: Human full-thickness skin equivalents (MatTek Epiderm FT co-culture tissue models) which contain keratinocytes and fibroblasts were treated with a 0.1% w/w truncated human type 21 collagen polypeptide (having an amino acid sequence of SEQ ID NO: 16) (“C21”; FIG. […] Culture medium was changed every 2 days. On day 4, supernatant was collected and analyzed by enzyme-linked immunosorbent assay (ELISA) for pro-collagen type I C-peptide, which is a readout for total secreted collagen type I protein.
# [3] = tested on: Human full-thickness skin equivalents (MatTek Epiderm FT co-culture tissue models); assay: Type III collagen production in human full-thickness skin equivalents (pro-collagen type III N-peptide ELISA); type: cell-based; settings: polypeptide 0.1% w/w, ascorbic acid 2% w/w, FIG. 21; for production of type III collagen as compared to untreated cells: each agent alone, day 2, retinol (10, unit not given), hyaluronic acid 0.1% w/w
# [4] = tested on: Human full-thickness skin equivalents (MatTek Epiderm FT co-culture tissue models); assay: Fibronectin production in human full-thickness skin equivalents (ELISA); type: cell-based; settings: polypeptide 0.1% w/w, FIG. 19; for production of fibronectin as compared to untreated cells: each agent alone, day 4, retinol (10, unit not given), ascorbic acid 2% w/w, hyaluronic acid 0.1% w/w
# [5] = Oxygen radical absorbance capacity (ORAC) assay, cell-free; type: biochemical; settings: for anti-oxidative capacity (ORAC): FIG. 25
# Experimental: The antioxidant potential of a polypeptide of SEQ ID NO: 16 was assessed using the oxygen free radical absorbance capacity (ORAC) assay. The ORAC assay is a cell-free assay that uses a fluorescent readout to measure a product's antioxidant capacity. Data is reported in Trolox (Vitamin E) equivalents.
# A polypeptide of SEQ ID NO: 5 was also evaluated in the ORAC assay.
# An oxygen radical absorbance capacity (ORAC) assay was performed to analyze the anti-oxidative capacity of a polypeptide according to SEQ ID NO: 52. The ORAC assay is a cell-free assay that uses a fluorescent readout to measure anti-oxidative capacity. Data is reported in Trolox (Vitamin E) equivalents (TEs).
# [6] = tested on: human primary keratinocytes; assay: MTT viability of UVB-irradiated keratinocytes, post-irradiation treatment; type: cell-based; settings: 40 mJ/cm^2 UVB, then 48 hours with 0.03%; compared with untreated UVB-irradiated keratinocytes; FIG. 12
# Experimental: Human primary keratinocytes were irradiated with 40 mJ/cm^2 UVB light, then incubated for 48 hours in media with 0.03% of a polypeptide of SEQ ID NO: 5. Cell viability was evaluated using the MTT metabolic colorimetric assay.
# facial skin [7] = assay: Facial skin hydration, clinical study of Example 7; type: in vivo, human; settings: topical facial cream 0.05%, n=18, FIG. 16
# Text: (§1) In a clinical study (n=18 subjects), subjects used a topical facial cream containing 0.05% of a polypeptide of SEQ ID NO: 5 for 2 weeks.
# [8] = tested on: human primary keratinocytes; assay: Thymine dimers in UVB-irradiated keratinocytes (OxiSelect UV-Induced DNA Damage ELISA); type: cell-based; settings: 25 mJ/cm^2 UVB, then overnight with 0.03%; compared with untreated cells; FIG. 11
# Experimental: In a further study, human primary keratinocytes were irradiated with 25 mJ/cm^2 UVB light, then incubated overnight in media with 0.03% of a polypeptide of SEQ ID NO: 5. DNA was extracted from the cells and analyzed for levels of thymine dimers (an indicator of DNA damage) using an OxiSelect UV-Induced DNA Damage ELISA kit.
# [9] = tested on: in vitro full thickness human skin tissue model (MatTek); assay: Collagen type I secretion by full thickness human skin tissue model (pro-collagen type I C-peptide ELISA); type: cell-based; settings: treatment 48 hours, fresh media another 48 hours (96 hour timepoint); compared with untreated tissue models or positive control Vitamin B3; FIG. 10
# Experimental: A series of in vitro experiments were conducted to assess the effects of a truncated jellyfish collagen on human skin fibroblasts and keratinocytes. An in vitro full thickness human skin tissue model (MatTek) which contains fibroblasts and keratinocytes was evaluated for collagen type I secretion after treatment with a polypeptide of SEQ ID NO: 5 for 48 hours. The tissue models were then rinsed and incubated with fresh media for another 48 hours (96 hour timepoint). The culture supernatants were analyzed by ELISA for pro-collagen type I C-peptide (a readout for total secreted collagen type I protein).
# [10] = tested on: in vitro full thickness human skin tissue model (MatTek); assay: IL-la ELISA in UVB-irradiated full thickness human skin tissue model; type: cell-based; settings: 300 mJ/cm^2 UVB, then 0.01% for 24 hours; compared to untreated UVB-irradiated control; FIG. 14
# Experimental: In a further study with the in vitro full thickness human skin tissue model (MatTek), the MatTek tissue models were irradiated with 300 mJ/cm^2 UVB light, then treated with 0.01% of a polypeptide of SEQ ID NO: 5 for 24 hours. Levels of pro-inflammatory cytokine IL-la was determined by ELISA.
# [11] = tested on: human primary keratinocytes; assay: MTT viability of keratinocytes exposed to urban dust; type: cell-based; settings: pre-treated with 0.03% for 24 hours, then 2 mg/ml urban dust (NIST 1649B) for 24 hours; compared with untreated exposed keratinocytes; FIG. 13
# Experimental: To test for protection from urban dust, human primary keratinocytes were pre-treated with 0.03% of a polypeptide of SEQ ID NO: 5 for 24 hours, and then exposed to 2 mg/ml urban dust (NIST 1649B) for 24 hours. Cell viability was evaluated using the MTT metabolic colorimetric assay.
# facial skin [12] = assay: Cutometer facial skin elasticity, clinical study of Example 7; type: in vivo, human; settings: topical facial cream 0.05%, n=18, FIG. 17
# Text: as §1
# [13] = tested on: human primary fibroblasts; assay: Fibroblast collagen type I protein secretion with truncated elastin (pro-collagen type I C-peptide ELISA); type: cell-based; settings: 48 hours, compared with untreated control fibroblasts, FIG. 24
# Experimental: Fibroblasts are the main source of the extracellular matrix peptides, including the structural proteins collagen and elastin. Human primary fibroblasts were evaluated for collagen type I protein secretion. Fibroblasts were cultured with a polypeptide according to SEQ ID NO: 52 for 48 hours. The culture supernatants were analyzed by ELISA for pro-collagen type I C-peptide, a readout for total secreted collagen type I protein.
# Keratinocytes = assay: Clariom microarray global gene expression in keratinocytes; type: cell-based; settings: 0.03% w/w solution, 24 hours, relative to untreated cells
# Experimental: Keratinocytes were incubated for 24 hours with media alone or with 0.03% w/w solution of a polypeptide according to SEQ ID NO: 52. RNA was extracted from the cells and analyzed by Clariom microarray (ThermoFisher) for global gene expression.
# Keratinocytes were incubated for 24 hours with media alone (untreated) or with 0.03% w/w solution of a polypeptide according to SEQ ID NO: 52. RNA was extracted from the cells and analyzed by Clariom microarray (ThermoFisher) for global gene expression.
# [14] = tested on: Human primary fibroblast cultures; assay: Fibroblast elastin production (ELISA kit); type: cell-based; settings: 0.03% w/w solution; 24 hours; compared to media alone; FIG. 28
# Experimental: Human primary fibroblast cultures were treated for 24 hours with media alone (untreated) or with 0.03% w/w solution of a polypeptide having an amino acid sequence according to SEQ ID NO: 52. Supernatants were collected and evaluated for elastin production using an ELISA kit.
# [15] = day 4 supernatant, hyaluronic acid 0.1% w/w (low molecular weight, 15-40 kDa)
molecule,measurement,setting,value
O=C1O[C@H]([C@@H](O)CO)C(O)=C1O [ascorbic acid],increase of elastin production relative to untreated control,[1],5%
same,production of elastin as compared to untreated cells,[1],increased production
same,production of type I collagen as compared to untreated cells,[2],increased production
same,increase of type III collagen production relative to untreated control,[3]; day 2 supernatant,80%
same,production of type III collagen as compared to untreated cells,[3],increased production
same,production of fibronectin as compared to untreated cells,[4],increased production
CC1=C(/C=C/C(C)=C/C=C/C(C)=C/CO)C(C)(C)CCC1 [retinol],increase of elastin production relative to untreated control,[1],17%
same,production of elastin as compared to untreated cells,[1],increased production
same,production of type I collagen as compared to untreated cells,[2],increased production
same,production of type III collagen as compared to untreated cells,[3],increased production
same,production of fibronectin as compared to untreated cells,[4],increased production
hyaluronic acid,production of elastin as compared to untreated cells,[1],increased production
same,increase of type I collagen production relative to the untreated control,[2]; [15],72%
same,production of type I collagen as compared to untreated cells,[2],increased production
same,production of type III collagen as compared to untreated cells,[3],increased production
same,increase of fibronectin production relative to untreated control,[4]; [15],30%
same,production of fibronectin as compared to untreated cells,[4],increased production
B1,"antioxidant properties, Trolox (Vitamin E) equivalents",[5]; 0.1% solution,193 μM Trolox
same,cell viability (MTT),[6],higher cell viability
same,skin hydration,facial skin [7]; 1 week vs baseline,increased
same,skin hydration,facial skin [7]; 2 weeks vs baseline,increased
same,skin hydration relative to topical application of marine collagen,"facial skin [7]; baseline, 1 week and 2 weeks",increased skin hydration
same,level of thymine dimers (DNA damage),[8],lower level
same,secreted collagen type I (pro-collagen type I C-peptide),[9],higher levels
same,levels of IL-la,[10],lower levels
same,cell viability (MTT) after urban dust exposure,[11],higher cell viability
same,skin elasticity (cutometer),facial skin [12]; 1 week vs baseline,increased
same,skin elasticity (cutometer),facial skin [12]; 2 weeks vs baseline,increased
B2,secreted collagen type I (pro-collagen type I C-peptide),[13]; 0.025% w/w solution,higher levels
same,secreted collagen type I (pro-collagen type I C-peptide),[13]; 0.05% w/w solution,higher levels
same,secreted collagen type I (pro-collagen type I C-peptide),[13]; 0.1% w/w solution,higher levels
same,anti-oxidative capacity (ORAC),[5]; 0.0125% w/w solution,anti-oxidative properties
same,anti-oxidative capacity (ORAC),[5]; 0.025% w/w solution,anti-oxidative properties
same,anti-oxidative capacity (ORAC),[5]; 0.05% w/w solution,anti-oxidative properties
same,anti-oxidative capacity (ORAC),[5]; 0.1% w/w solution,anti-oxidative properties
same,"anti-oxidative properties, Trolox (Vitamin E) equivalents",[5]; 0.2% w/w solution,228 μM Trolox
same,anti-oxidative capacity (ORAC),[5]; 0.2% w/w solution,anti-oxidative properties
same,"expression of antioxidant genes, including SOD2, GPX2, GPX4, GSTK1, GSTZ1, GSTA4, GSTM2, CCS, GPX1, GLRX, PRDXS, PRDX6, and PRDX2",Keratinocytes; FIG. 26,upregulated
same,"expression of pro-apoptotic genes, including APAF1, BAK1, CASP7, CASP8, FADD, MCL1, and MET",Keratinocytes; FIG. 27,downregulated
same,production of elastin,[14],increased production
